Results on four molecules are retold here after publication PMC12491784, “A Circular RNA Promotes Tumor Metastasis through Stabilizing MSI2 Protein in Pancreatic Ductal Adenocarcinoma”.

For data set [1], the target named is T1, MSI2 (Musashi-2), recombinant (UniProt Q96DH6 1-328). As to the kind of experiment: pull-down; EMSA: kit binding buffer (Beyotime GS009), 25 C 1 h, 5% native PAGE; RNA pull-down: 100 pmol biotinylated probe on streptavidin beads, 4 C 4 h; high-stringency. As to conditions: protein: recombinant; tags: GST; label: 5' biotin.
T1 sequence (Q96DH6 whole entry): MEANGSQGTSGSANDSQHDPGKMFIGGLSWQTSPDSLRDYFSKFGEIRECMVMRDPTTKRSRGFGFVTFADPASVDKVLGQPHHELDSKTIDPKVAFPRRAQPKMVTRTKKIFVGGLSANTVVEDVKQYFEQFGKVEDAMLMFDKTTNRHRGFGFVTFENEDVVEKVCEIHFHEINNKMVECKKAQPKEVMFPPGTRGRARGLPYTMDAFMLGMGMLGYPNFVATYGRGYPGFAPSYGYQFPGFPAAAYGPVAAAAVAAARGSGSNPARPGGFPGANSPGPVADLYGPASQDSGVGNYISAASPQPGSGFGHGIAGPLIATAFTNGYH
The target in data set [2] is T1, MSI2 (Musashi-2), recombinant. As to the kind of experiment: EMSA; EMSA: kit binding buffer (Beyotime GS009), 25 C 1 h, 5% native PAGE; RNA pull-down: 100 pmol biotinylated probe on streptavidin beads, 4 C 4 h; high-stringency. As to conditions: protein: recombinant; tags: GST; label: 5' biotin.

B1: P1-mut RNA probe (ssRNA)
RNA: GUGUGCUCCAAACUUUAUCAAAAG
On to B1, for which, in data set [1], the binding result is “no binding”.

B2: P1 RNA probe (ssRNA)
RNA: GUGUGCUCCAUAGUUUAUCAAAAG
Consider B2, for which the binding result in data set [2] was “binds”.

B3: P2 RNA probe (ssRNA)
RNA: UCCUAUCAAAUUAGUAAACCAAAG
For B3, the binding result in data set [2] was “binds”.

B4: P2-mut RNA probe (ssRNA)
RNA: UCCUAUCAAAUAACUAAACCAAAG
For B4, the binding result in data set [1] was “no binding”.
